The source of these data is paper PMC4676722 (PLoS Genetics, 2015).

The experiment concerns the target T1, recombinant ovine wild type SOCS2 (Suppressor of Cytokine Signaling 2) (sheep (ovine), UniProt A0ACI6S499 1-198).
T1 construct: also called rOvSOCS2 WT; SOCS2-WT
T1 sequence (looked up): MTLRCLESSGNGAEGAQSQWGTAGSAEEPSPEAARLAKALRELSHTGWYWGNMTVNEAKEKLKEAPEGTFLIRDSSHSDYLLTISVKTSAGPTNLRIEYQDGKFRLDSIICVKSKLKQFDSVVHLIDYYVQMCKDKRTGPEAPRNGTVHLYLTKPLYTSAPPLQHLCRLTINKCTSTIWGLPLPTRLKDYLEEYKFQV
Nature of the experiment: SPR; BIAcore T200, single-cycle kinetics; biotinylated GHR pY-peptide immobilised on SA chip (75 RU), scramble peptide as reference; five injections of SOCS2 protein 100 nM-8.1 μM, 120 s each; 1:1 Langmuir fit; 25°C, HBS-EP buffer. As to conditions: both partners purified. In general terms: In SPR one partner is held on a chip, and binding of the other changes the refractive index at the surface.

Where no end group is shown, it is not given here. [ ]: non-standard residue; d: D form. pY = N[C@@H](Cc1ccc(OP(=O)(O)O)cc1)C(=O)O

B1: phosphorylated peptide from the growth hormone receptor (pY595 GHR), biotinylated (peptide)
chain: PVPD[pY]TSIHIV
modifications: also: biotinylated, site not given here
For orientation: koff means the first-order rate constant of dissociation. By kon is commonly meant the second-order rate constant of association. Consider B1, for which the koff was 0.0016 s⁻¹ and the kon stood at 828 M⁻¹ s⁻¹.
